Key:
Assay in all cases: EMSA; 0-300 ng protein titration; EMSA as in Chen (ref. 37), 10 ng probe and 200 ng protein (titration 0-300 ng), SYBR Gold stain; binding buffer, pH and temperature not stated; protein eluted in BS/THES (22 mM Tris-HCl pH 7.5, 4.4 mM EDTA, 8.9% sucrose, 62 mM NaCl, 10 mM HEPES, 5 mM CaCl2, 50 mM KCl, 12% glycerol) with 150 mM imidazole
Settings in all cases: protein: recombinant; tags: His (pET28a); blunt
[1] = target: MtAHL2 (Medicago truncatula, UniProt G7KSI4 1-269)
[2] = target: MtAHL1 (Medicago truncatula, UniProt G7JGG2 1-296)
Chain of MtAHL1 (G7JGG2 entry or part of it): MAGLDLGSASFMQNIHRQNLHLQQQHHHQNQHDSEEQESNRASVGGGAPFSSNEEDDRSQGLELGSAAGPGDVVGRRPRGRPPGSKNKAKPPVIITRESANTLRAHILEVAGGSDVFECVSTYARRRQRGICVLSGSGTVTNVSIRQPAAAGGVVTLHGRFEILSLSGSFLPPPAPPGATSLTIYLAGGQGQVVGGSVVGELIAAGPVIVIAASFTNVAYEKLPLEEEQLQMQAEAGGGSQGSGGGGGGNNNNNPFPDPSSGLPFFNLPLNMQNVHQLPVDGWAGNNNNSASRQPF

[3] = target: GmAHL1 (Glycine max, UniProt C6TMY6 1-268)
Chain of GmAHL1 (C6TMY6 entry or part of it): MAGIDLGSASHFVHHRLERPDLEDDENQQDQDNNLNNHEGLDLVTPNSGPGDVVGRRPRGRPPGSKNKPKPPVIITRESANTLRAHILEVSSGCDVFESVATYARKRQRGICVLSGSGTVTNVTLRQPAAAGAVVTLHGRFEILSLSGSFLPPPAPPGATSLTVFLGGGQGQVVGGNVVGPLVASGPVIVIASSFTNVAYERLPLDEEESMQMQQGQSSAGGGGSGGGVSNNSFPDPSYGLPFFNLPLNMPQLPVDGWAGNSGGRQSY

Measured: binding result

Chain of MtAHL2 (G7KSI4 entry or part of it): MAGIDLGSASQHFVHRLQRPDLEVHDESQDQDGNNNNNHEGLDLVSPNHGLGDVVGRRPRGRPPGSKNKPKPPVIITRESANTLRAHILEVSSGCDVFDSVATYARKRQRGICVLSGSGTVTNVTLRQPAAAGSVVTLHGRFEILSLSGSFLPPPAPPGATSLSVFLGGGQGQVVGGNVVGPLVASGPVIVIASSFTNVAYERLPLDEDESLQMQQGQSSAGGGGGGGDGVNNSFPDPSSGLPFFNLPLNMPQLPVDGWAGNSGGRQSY

B1: probe H0 (dsDNA)
DNA 1: TTAATAATTATTTTAATTTTCAAAAAGTATTAATTAC
DNA 2: GTAATTAATACTTTTTGAAAATTAAAATAATTATTAA
binds: all assays above

Reference: paper PMC9946822, “Widely conserved AHL transcription factors are essential for NCR gene expression and nodule development in Medicago”
